Reference: patent US20180086849A1 (Hoffmann-La Roche, published 2018)

Tests used:
[1] = biological target: T1, human CEA (Carcinoembryonic antigen) on cells (human, UniProt P06731 35-685); test: cell-based or functional assay
T1 sequence (looked up): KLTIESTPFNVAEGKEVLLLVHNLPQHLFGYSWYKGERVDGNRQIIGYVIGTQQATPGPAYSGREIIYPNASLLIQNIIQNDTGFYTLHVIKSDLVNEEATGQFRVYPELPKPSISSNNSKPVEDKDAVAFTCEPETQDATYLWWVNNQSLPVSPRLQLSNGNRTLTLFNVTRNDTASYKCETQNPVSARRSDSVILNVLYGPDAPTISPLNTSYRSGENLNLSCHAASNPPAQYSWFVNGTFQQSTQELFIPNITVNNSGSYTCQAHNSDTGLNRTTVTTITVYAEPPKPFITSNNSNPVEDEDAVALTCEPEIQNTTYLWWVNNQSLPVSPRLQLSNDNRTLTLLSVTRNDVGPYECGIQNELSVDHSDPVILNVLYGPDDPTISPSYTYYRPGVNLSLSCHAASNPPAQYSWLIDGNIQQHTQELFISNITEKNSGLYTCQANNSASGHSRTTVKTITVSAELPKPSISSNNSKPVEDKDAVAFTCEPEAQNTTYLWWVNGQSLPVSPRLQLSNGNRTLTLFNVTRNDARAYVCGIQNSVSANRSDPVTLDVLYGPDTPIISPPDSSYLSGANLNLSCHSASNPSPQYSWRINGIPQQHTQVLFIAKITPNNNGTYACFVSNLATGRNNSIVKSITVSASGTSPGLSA

[2] = biological target: T2, Human EGFR (immobilized on CM5 chip) (human, UniProt P00533 25-645, limits assumed); test: SPR (Biacore T100): construct captured at 200 nM on immobilised human EGFR, then CD3 fusion at 2000 nM
T2 construct: also called tumor antigen

[3] = biological target: human MCSP (Melanoma-associated Chondroitin Sulfate Proteoglycan) on cells (human, UniProt Q6UVK1 30-2322); test: cell-based or functional assay
human MCSP (Melanoma-associated Chondroitin Sulfate Proteoglycan) on cells, sequence (Q6UVK1 30-2322): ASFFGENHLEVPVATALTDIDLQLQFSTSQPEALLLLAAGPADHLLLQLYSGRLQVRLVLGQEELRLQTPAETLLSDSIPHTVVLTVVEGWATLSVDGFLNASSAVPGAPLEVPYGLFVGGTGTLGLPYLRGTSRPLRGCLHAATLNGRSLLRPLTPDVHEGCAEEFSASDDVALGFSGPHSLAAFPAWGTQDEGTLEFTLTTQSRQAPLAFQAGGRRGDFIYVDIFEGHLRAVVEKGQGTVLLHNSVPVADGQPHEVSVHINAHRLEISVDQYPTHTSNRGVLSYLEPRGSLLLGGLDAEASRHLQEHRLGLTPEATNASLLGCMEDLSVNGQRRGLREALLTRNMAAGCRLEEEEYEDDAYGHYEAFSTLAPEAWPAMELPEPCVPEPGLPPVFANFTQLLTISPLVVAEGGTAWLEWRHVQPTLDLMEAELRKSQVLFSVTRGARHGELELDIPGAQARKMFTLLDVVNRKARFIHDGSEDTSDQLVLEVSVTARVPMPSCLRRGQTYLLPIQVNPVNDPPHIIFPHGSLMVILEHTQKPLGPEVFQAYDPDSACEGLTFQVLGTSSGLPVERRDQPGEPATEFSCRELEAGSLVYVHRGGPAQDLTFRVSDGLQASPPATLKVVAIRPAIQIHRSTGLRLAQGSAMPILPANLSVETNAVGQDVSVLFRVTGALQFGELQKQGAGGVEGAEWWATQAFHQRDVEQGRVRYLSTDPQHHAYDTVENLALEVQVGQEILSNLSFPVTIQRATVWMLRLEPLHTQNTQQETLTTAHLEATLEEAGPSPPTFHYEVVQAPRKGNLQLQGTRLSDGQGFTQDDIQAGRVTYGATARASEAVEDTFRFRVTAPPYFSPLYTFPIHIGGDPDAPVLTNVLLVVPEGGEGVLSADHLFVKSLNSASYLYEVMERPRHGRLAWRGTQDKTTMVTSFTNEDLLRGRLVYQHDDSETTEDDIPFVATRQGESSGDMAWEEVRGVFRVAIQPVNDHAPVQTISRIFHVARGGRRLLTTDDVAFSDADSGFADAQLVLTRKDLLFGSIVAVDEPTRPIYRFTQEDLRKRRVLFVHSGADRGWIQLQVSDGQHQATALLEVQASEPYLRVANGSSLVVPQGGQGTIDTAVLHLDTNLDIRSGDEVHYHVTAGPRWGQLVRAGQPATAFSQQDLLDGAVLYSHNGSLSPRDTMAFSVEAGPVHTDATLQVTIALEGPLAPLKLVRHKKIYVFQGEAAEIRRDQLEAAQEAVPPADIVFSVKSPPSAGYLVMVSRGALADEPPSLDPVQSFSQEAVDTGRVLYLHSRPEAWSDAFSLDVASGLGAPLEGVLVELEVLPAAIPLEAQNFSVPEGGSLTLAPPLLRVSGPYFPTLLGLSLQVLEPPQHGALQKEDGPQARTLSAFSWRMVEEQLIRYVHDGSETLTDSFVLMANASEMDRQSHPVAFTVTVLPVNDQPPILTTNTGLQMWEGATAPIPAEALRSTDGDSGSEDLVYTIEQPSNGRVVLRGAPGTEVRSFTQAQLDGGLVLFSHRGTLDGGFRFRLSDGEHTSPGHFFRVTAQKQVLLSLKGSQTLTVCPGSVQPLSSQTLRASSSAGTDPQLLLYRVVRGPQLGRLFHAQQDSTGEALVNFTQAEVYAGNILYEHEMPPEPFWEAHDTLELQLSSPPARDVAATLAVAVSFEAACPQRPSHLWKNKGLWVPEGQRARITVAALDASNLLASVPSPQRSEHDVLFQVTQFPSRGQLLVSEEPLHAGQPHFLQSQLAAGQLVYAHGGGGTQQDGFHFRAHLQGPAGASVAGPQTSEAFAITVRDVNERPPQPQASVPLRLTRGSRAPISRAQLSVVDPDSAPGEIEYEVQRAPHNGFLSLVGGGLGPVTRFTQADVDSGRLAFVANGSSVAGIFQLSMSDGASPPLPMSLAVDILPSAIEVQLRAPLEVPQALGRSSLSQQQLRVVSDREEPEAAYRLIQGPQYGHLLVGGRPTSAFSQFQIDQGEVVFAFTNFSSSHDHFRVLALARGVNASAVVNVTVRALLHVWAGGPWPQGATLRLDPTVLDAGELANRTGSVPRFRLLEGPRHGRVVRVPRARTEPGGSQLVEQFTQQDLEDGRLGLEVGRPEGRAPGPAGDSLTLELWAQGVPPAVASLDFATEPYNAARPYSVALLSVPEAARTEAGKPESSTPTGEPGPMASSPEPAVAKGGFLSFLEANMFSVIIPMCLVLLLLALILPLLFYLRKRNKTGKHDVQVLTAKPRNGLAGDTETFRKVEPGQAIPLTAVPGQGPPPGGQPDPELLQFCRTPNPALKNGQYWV

[4] = biological target: Her2 on KPL-4 cells (human (human cell line KPL-4), UniProt P04626 23-1255); test: cell-based or functional assay

B1: 2+1 IgG Crossfab, inverted; VL/VH exchange (CH1A1A/V9), anti-CEA/anti-huCD3 (bispecific antibody)
chain 1: EVQLVESGGGLVQPGGSLRLSCAASGYSFTGYTMNWVRQAPGKGLEWVALINPYKGVSTYNQKFKDRFTISVDKSKNTAYLQMNSLRAEDTAVYYCARSGYYGDSDWYFDVWGQGTLVTVSSASVAAPSVFIFPPSDEQLKSGTASVVCLLNNFYPREAKVQWKVDNALQSGNSQESVTEQDSKDSTYSLSSTLTLSKADYEKHKVYACEVTHQGLSSPVTKSFNRGEC
chain 2: not shown
chain 3: QVQLVQSGAEVKKPGASVKVSCKASGYTFTEFGMNWVRQAPGQGLEWMGWINTKTGEATYVEEFKGRVTFTTDTSTSTAYMELRSLRSDDTAVYYCARWDFAYYVEAMDYWGQGTTVTVSSASTKGPSVFPLAPSSKSTSGGTAALGCLVKDYFPEPVTVSWNSGALTSGVHTFPAVLQSSGLYSLSSVVTVPSSSLGTQTYICNVNHKPSNTKVDKKVEPKSCDKTHTCPPCPAPEAAGGPSVFLFPPKPKDTLMISRTPEVTCVVVDVSHEDPEVKFNWYVDGVEVHNAKTKPREEQYNSTYRVVSVLTVLHQDWLNGKEYKCKVSNKALGAPIEKTISKAKGQPREPQVCTLPPSRDELTKNQVSLSCAVKGFYPSDIAVEWESNGQPENNYKTTPPVLDSDGSFFLVSKLTVDKSRWQQGNVFSCSVMHEALHNHYTQKSLSLSPGK
chain 4: DIQMTQSPSSLSASVGDRVTITCKASAAVGTYVAWYQQKPGKAPKLLIYSASYRKRGVPSRFSGSGSGTDFTLTISSLQPEDFATYYCHQYYTYPLFTFGQGTKLEIKRTVAAPSVFIFPPSDEQLKSGTASVVCLLNNFYPREAKVQWKVDNALQSGNSQESVTEQDSKDSTYSLSSTLTLSKADYEKHKVYACEVTHQGLSSPVTKSFNRGEC
- EC50 of T cell-mediated killing (LDH release) of LS-174T cells, human PBMCs, 28 h [1]: 0.955 nM
- EC50 of T cell-mediated killing (LDH release) of MKN-45 cells, human PBMCs, 28 h [1]: 0.243 nM

B2: 2+1 IgG scFab, P329G LALA (anti-EGFR/anti-huCD3) (bispecific antibody)
chain 1: QVQLVQSGAEVKKPGSSVKVSCKASGFTFTDYKIHWVRQAPGQGLEWMGYFNPNSGYSTYAQKFQGRVTITADKSTSTAYMELSSLRSEDTAVYYCARLSPGGYYVMDAWGQGTTVTVSSASTKGPSVFPLAPSSKSTSGGTAALGCLVKDYFPEPVTVSWNSGALTSGVHTFPAVLQSSGLYSLSSVVTVPSSSLGTQTYICNVNHKPSNTKVDKKVEPKSCDKTHTCPPCPAPEAAGGPSVFLFPPKPKDTLMISRTPEVTCVVVDVSHEDPEVKFNWYVDGVEVHNAKTKPREEQYNSTYRVVSVLTVLHQDWLNGKEYKCKVSNKALGAPIEKTISKAKGQPREPQVCTLPPSRDELTKNQVSLSCAVKGFYPSDIAVEWESNGQPENNYKTTPPVLDSDGSFFLVSKLTVDKSRWQQGNVFSCSVMHEALHNHYTQKSLSLSPGK
chain 2: DIQMTQSPSSLSASVGDRVTITCRASQGINNYLNWYQQKPGKAPKRLIYNTNNLQTGVPSRFSGSGSGTEFTLTISSLQPEDFATYYCLQHNSFPTFGQGTKLEIKRTVAAPSVFIFPPSDEQLKSGTASVVCLLNNFYPREAKVQWKVDNALQSGNSQESVTEQDSKDSTYSLSSTLTLSKADYEKHKVYACEVTHQGLSSPVTKSFNRGEC
chain 3: not shown
notes: also called 2+1 IgG scFab (EGFR)
- binding result [2]: binds

B3: 1+1 IgG scFab (anti-EGFR/anti-huCD3) (bispecific antibody)
chain 1: DIQMTQSPSSLSASVGDRVTITCRASQGINNYLNWYQQKPGKAPKRLIYNTNNLQTGVPSRFSGSGSGTEFTLTISSLQPEDFATYYCLQHNSFPTFGQGTKLEIKRTVAAPSVFIFPPSDEQLKSGTASVVCLLNNFYPREAKVQWKVDNALQSGNSQESVTEQDSKDSTYSLSSTLTLSKADYEKHKVYACEVTHQGLSSPVTKSFNRGEC
chain 2: not shown
chain 3: DKTHTCPPCPAPEAAGGPSVFLFPPKPKDTLMISRTPEVTCVVVDVSHEDPEVKFNWYVDGVEVHNAKTKPREEQYNSTYRVVSVLTVLHQDWLNGKEYKCKVSNKALGAPIEKTISKAKGQPREPQVCTLPPSRDELTKNQVSLSCAVKGFYPSDIAVEWESNGQPENNYKTTPPVLDSDGSFFLVSKLTVDKSRWQQGNVFSCSVMHEALHNHYTQKSLSLSPGK
- binding result [2]: binds

B4: 1+1 IgG scFab, one armed (anti-EGFR/anti-huCD3) (bispecific antibody)
chain 1: not shown
chain 2: QVQLVQSGAEVKKPGSSVKVSCKASGFTFTDYKIHWVRQAPGQGLEWMGYFNPNSGYSTYAQKFQGRVTITADKSTSTAYMELSSLRSEDTAVYYCARLSPGGYYVMDAWGQGTTVTVSSASTKGPSVFPLAPSSKSTSGGTAALGCLVKDYFPEPVTVSWNSGALTSGVHTFPAVLQSSGLYSLSSVVTVPSSSLGTQTYICNVNHKPSNTKVDKKVEPKSCDKTHTCPPCPAPEAAGGPSVFLFPPKPKDTLMISRTPEVTCVVVDVSHEDPEVKFNWYVDGVEVHNAKTKPREEQYNSTYRVVSVLTVLHQDWLNGKEYKCKVSNKALGAPIEKTISKAKGQPREPQVCTLPPSRDELTKNQVSLSCAVKGFYPSDIAVEWESNGQPENNYKTTPPVLDSDGSFFLVSKLTVDKSRWQQGNVFSCSVMHEALHNHYTQKSLSLSPGK
chain 3: DIQMTQSPSSLSASVGDRVTITCRASQGINNYLNWYQQKPGKAPKRLIYNTNNLQTGVPSRFSGSGSGTEFTLTISSLQPEDFATYYCLQHNSFPTFGQGTKLEIKRTVAAPSVFIFPPSDEQLKSGTASVVCLLNNFYPREAKVQWKVDNALQSGNSQESVTEQDSKDSTYSLSSTLTLSKADYEKHKVYACEVTHQGLSSPVTKSFNRGEC
- binding result [2]: binds

B5: aVH TCB (Crossfab fragment with a CD3 binding moiety and two aVH moieties binding MCSP, P329G LALA) (bispecific antibody)
light: SASYRKR
heavy 1: HQYYTYPLFT
heavy 2: QAVVTQEPSLTVSPGGTVTLTCGSSTGAVTTSNYANWVQEKPGQAFRGLIGGTNKRAPGTPARFSGSLLGGKAALTLSGAQPEDEAEYYCALWYSNLWVFGGGTKLTVLSSASTKGPSVFPLAPSSKSTSGGTAALGCLVKDYFPEPVTVSWNSGALTSGVHTFPAVLQSSGLYSLSSVVTVPSSSLGTQTYICNVNHKPSNTKVDKKVEPKSC
- EC50 [pM] 24 h of T-cell mediated killing of MV-3 cells [3]: 9120 pM
- EC50 [pM] 48 h of T-cell mediated killing of MV-3 cells [3]: 8970 pM

B6: Darpin TCB (Crossfab fragment with a CD3 binding moiety and two Darpin moieties binding HER2, P329G LALA) (bispecific antibody)
light: EVQLVESGGGLVQPGGSLRLSCAASGFNIKDTYIGWVRRAPGKGTELVARIYPTNGYTRYADSVKGRFTISADTSKNTAYLQMNSLRAEDTAVYYCARTSWGGWLSGDYWGQGTLVTVSSDKTHTCPPCPAPEAAGGPSVFLFPPKPKDTLMISRTPEVTCVVVDVSHEDPEVKFNWYVDGVEVHNAKTKPREEQYNSTYRVVSVLTVLHQDWLNGKEYKCKVSNKALGAPIEKTISKAKGQPREPQVCTLPPSRDELTKNQVSLSCAVKGFYPSDIAVEWESNGQPENNYKTTPPVLDSDGSFFLVSKLTVDKSRWQQGNVFSCSVMHEALHNHYTQKSLSLSPGK
heavy 1: not shown
heavy 2: QAVVTQEPSLTVSPGGTVTLTCGSSTGAVTTSNYANWVQEKPGQAFRGLIGGTNKRAPGTPARFSGSLLGGKAALTLSGAQPEDEAEYYCALWYSNLWVFGGGTKLTVLSSASTKGPSVFPLAPSSKSTSGGTAALGCLVKDYFPEPVTVSWNSGALTSGVHTFPAVLQSSGLYSLSSVVTVPSSSLGTQTYICNVNHKPSNTKVDKKVEPKSC
- EC50 [pM] 24 h of T-cell mediated killing of KPL-4 cells [4]: 376 pM
- EC50 [pM] 48 h of T-cell mediated killing of KPL-4 cells [4]: 235 pM

B7: 1+1 IgG scFab, one armed inverted (anti-EGFR/anti-huCD3) (bispecific antibody)
chain 1: not shown
chain 2: not shown
chain 3: EVQLVESGGGLVQPGGSLRLSCAASGYSFTGYTMNWVRQAPGKGLEWVALINPYKGVSTYNQKFKDRFTISVDKSKNTAYLQMNSLRAEDTAVYYCARSGYYGDSDWYFDVWGQGTLVTVSSASTKGPSVFPLAPSSKSTSGGTAALGCLVKDYFPEPVTVSWNSGALTSGVHTFPAVLQSSGLYSLSSVVTVPSSSLGTQTYICNVNHKPSNTKVDKKVEPKSCDKTHTCPPCPAPEAAGGPSVFLFPPKPKDTLMISRTPEVTCVVVDVSHEDPEVKFNWYVDGVEVHNAKTKPREEQYNSTYRVVSVLTVLHQDWLNGKEYKCKVSNKALGAPIEKTISKAKGQPREPQVCTLPPSRDELTKNQVSLSCAVKGFYPSDIAVEWESNGQPENNYKTTPPVLDSDGSFFLVSKLTVDKSRWQQGNVFSCSVMHEALHNHYTQKSLSLSPGK
- binding result [2]: binds
